Laboratory results taken from patent US20240417446A1.

Legend:
[1] = molecular target: SARS-CoV-2 Beta variant spike protein on pseudovirus (SARS-CoV-2), P0DTC2; assay: cell-based or functional assay
[2] = molecular target: SARS-CoV-2 Delta variant spike protein on pseudovirus (SARS-CoV-2), P0DTC2; assay: cell-based or functional assay

B1: NCI-CoV-S2A9 (VNAR)
chain: ARVDQTPRSVTKETGESLTINCVLRDASYALGRTCWYRKKSGSTNEESISKGGRYVETVNSGSKSFSLRINDLTVEDGGTYRCGVSTPWSCDYGPLCFYAACGDGTVVTVN
Question: What does the source list for B1?
Answer: IC50 for neutralizing pseudovirus [1]: 2220 nM; IC50 for neutralizing pseudovirus [2]: 1880 nM
